# Data as given in the nanobody polyreactivity screen of Harvey et al. (2022).
# Experiment: yeast display, Sf9 membrane polyspecificity reagent, FACS + sequencing; frameworks hold sequencing errors
# In short: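 Genes from sorted yeast were amplified by colony PCR, read by MiSeq 2 × 250 sequencing and filtered on CDR length. These cells carried a synthetic nanobody library in Saccharomyces cerevisiae BJ5465 and were sorted by FACS into low and high (top ~1%) gates on anti-HA and streptavidin fluorescence. Polyreactivity is labelled according to the gate of origin.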
row,Sequence,polyreactivity (PSR sort gate)
1,QVQLVESGGGLVQAGGSLRLSCAASGYTFYPYDIGWYRQAPGKERELVAAISWSGGGTYYADSVKGRFTISRDNAKNTVYLQMNSLKPEDTAVYYCAADLKALNQSYPGYEYWGQGTQVTVSS,low polyreactivity
2,QVQLVESGGGLVQAGGSLRLSCAASGFTFEFNVMGWYRQAPGKERELVASIRWGSTSYADSVKGRFTISRDNAKNTVYLQMNSLKPEDTAVYYCAADRSTGLGDDDYWGQGTQVTVSS,low polyreactivity
3,QVQLVDSRGGLVQAGGSLRLICAASGSTFGRYARGWYRPEPGTERELVAAISWRGGSTFYADSVKGRFTISRDNAKNTVYLLMISLKPEDTAVYYCAAVSYGRPRMGYWGQGTQVTVSS,high polyreactivity
4,QVQLVESGGGLVQAGGSLRLSCDASGRIFSPNTMGWYRQAPGKERELVAAISRGGSTYADSVKGRFTISRDNAKITVYLQMNSLKPEDTAVYYCNARYGRYYGAYEYWGQGTQVTVSS,high polyreactivity
5,QVQLVESGGGLVQAGGSLRLSCAASGIIFTVYAMGWYRQAPGKERELVAAITSSGGRTYYADSVKGRFTISRDNAKNTVYLQMNSLKPEDTAVYYCAASIWLYRYYYWGQGTQVTVSS,high polyreactivity
6,QVQLVESGGGLVQAGGSLRFSCAASGRTIWTYVMGWYRQAPGKERELVAAISRSGSSTYYADSVKGRFTISRDNAKNTVYLQMNSLKPEDTAVYYCNKVDGTTLDDHYMDYWGQGTQVTVAS,low polyreactivity
7,QVQLVESGGGLVQAGGSLRLSCAASGRIFGRYAMGWYRQAPGKERELVAAISVSGGSTYYADSVKGRFTISRDNAKNTVYLQMNSLKPEDTAVYYCATEWRPRYYGTEPFDSWGQGTQVTVSS,high polyreactivity
8,QVQLVESGGGLVQAGGSLRLSCAASGRTFRINAMGCYRQAPGKERELVAAITSGGRTNYADSVKGRFTISRDNAKNTVYLQMNSLKPEDTAVYYCAAERTPSYRAYDYWGQGTQVTVSS,low polyreactivity
9,QVQLVESGGGLVQAGGSHRLSCAASGYIFDYNDMGWSRQAPGKERELVAAITYSRGSTYYADSVKGRFTISRDNAKNTVYLQMNSLQPEDTAVYYCAATFRSRGYSARRYYYWGQGTQVTVST,high polyreactivity
10,QVQLVESGGGLVQAGGSLRLSCAASGRIFYSYVMGWYRQAPGKERELVAAIRWGGGSTYYADSVKGRFTISPDNPKNTVYLQMNSLKPEDTAVYYCAAAYNWRKYDYWGQGTQVTVSS,high polyreactivity
11,QVQLVESGGGLVQAGGSLRLSCAASGSIFSYNVIGWYRQAPGKEREMVATITVDGTSTYYADSVKGRFTISRDNAKNTVYLQMNSLKPEDTAVYDCAADETASFTQEYEEMEYWGQGTQVTVSS,low polyreactivity
12,QVQLVESGGGLVQAGGSLRLSCAASGFIFYIYAMGWYRQAPGKERELVAAFTSGGSTYYADSVKGRFTISRDNAKNTVYLQMNSLKPEDTAVYYCAAESYYGYDYWGQGTQVTVSS,low polyreactivity
13,QVQLVESGGGLVQAGGSLRLSCAASGFIFSNNAMGWYRQAPGKERELVAAITSSGGRTYYADSVKGRFTISRDNAKNTVYLQMNSLKPEDTAVYYCAAVWRTSVWTKYGYWGQGTQVTVSS,high polyreactivity
14,QVQLVESGGGLVQAGGSLRLSCAASGYTFVVYAMGWYRQAPGKERELVARISSGGSTFYADSVKGRFTISRDNAKNTVYLQMNSLKPEDTAVYYCAAQWTRYRRRPMDYWGQGTQVTVSS,high polyreactivity
15,QVQLVESGGGLVQAGGSLRLSCAASGRTFGKNAMGWYRQAPGKEREFVAAITSRGGSTYYADSVKGRFTISRDNAKNTDYLQMNRLKPEDTAVYYCNREFKRQSQRTEHYYWGQGTQVTVSS,low polyreactivity
16,QDQHVESGGGLVQAGGSLRLSCAASGRTFVFYAMGWYRQAPGKERELLAVIRVIGGSTKYADSVKGRFTISRDNAKNTVYLQMNSLKPVDTAVYYCAADGVVVVAAYMYYWGQGTQVTVSS,low polyreactivity
17,QVQLVESGGGLVQAGGSLRLSCAASGRTFIVNAMGWYRQAPGKVRELVAAITKGARTYYADSVKGRFTISRDNAKNTVYLQRNSLKPEDTAVYYCNATRLGGNGTRHYYWGQGTQVTVSS,high polyreactivity
18,QVQLVDSGGGVVQAGGSLRLSCPASGRTFRGYAMGWYRQAPGKERELVAAISSGGSTYYADSVKGRFTISRDNAKNTVYLQMNSLKPEDTAVYYCAAGGPSTLDDYWGQGTQVTVSS,low polyreactivity
19,QVQLVESGGGLVQAGGSLRLSCAASGYTFKYYTMGWYRQAPGKESELVAAITRSGGSTYYADSVKGRFTISRDNAKNTVYLQINSLKPEDTAVYYCAARAAYKQPVSFDYWGQGTQVTVSS,high polyreactivity
20,HVQLVESGGGLVQAGGSLRLSCAASGSIYALYDLGRYRQAPGKERELVASITGSGGNTYYADSVKGRFTISRDNAKNTVYLQMNSLKPEDTAVYYCAADFRYAGYSYDYWGQGTQVSVSS,low polyreactivity
21,QVQLVESGGGLVQAGGSLRLSCADSGGIFLSYGMGWYRQAPGKERELVAAISRNDGRTYYADSVKGRFTISRDNAKNTVYLQMNSLKPEDTAVYYCAADPEYYYYIYVYVQYDYWGQGTQVTVSS,low polyreactivity
